Results published in patent publication US20070292434A1 (VIB VZW, published 2007).
Where a chain is given by its changes, count along the chain named.

B1: mLR ΔCRH1, ΔIg, ΔCRH2 cys751ser (receptor, murine, UniProt P48356 637-1162, looked up, not shown: small tags and cut ends)
chain: PMRGPEFWRKMDGDVTKKERNVTLLWKPLTKNDSLCSVRRYVVKHRTAHNGTWSEDVGNRTNLTFLWTEPAHTVTVLAVNSLGASLVNFNLTFSWPMSKVSAVESLSAYPLSSSSVILSWTLSPDDYSLLYLVIEWKILNEDDGMKWLRIPSNVKKFYIHDNFIPIEKYQFSLYPVFMEGVGKPKIINGFTKDAIDKQQNDAGLYVIVPIIISSCVLLLGTLLISHQRMKKLFWDDVPNPKNCSWAQGLNFQKPETFEHLFTKHAESVIFGPLLLEPEPISEEISVDTAWKNKDEMVPAAMVSLLLTTPDPESSSICISDQCNSANFSGSQSTQVTCEDECQRQPSVKYATLVSNDKLVETDEEQGFIHSPVSNCISSNHSPLRQSFSSSSWETEAQTFFLLSDQQPTMISPQLSFSGLDELLELEGSFPEENHREKSVCYLGVTSVNRRESGVLLTGEAGILCTFPAQCLFSDIRILQERCSHFVENNLSLGTSGENFVPYMPQFQTCSTHSHKIMENKMCDLTV
notes: domain: FNIII, transmembrane and cytoplasmic domains (CRH1, Ig and CRH2 deleted); also called single cys751ser mutant receptor
B2: mLR ΔCRH1, ΔIg, ΔCRH2 cys672ser (receptor, murine, UniProt P48356 637-1162, looked up, not shown: small tags and cut ends)
chain: B1 chain with C36S, S115C
notes: domain: FNIII, transmembrane and cytoplasmic domains (CRH1, Ig and CRH2 deleted)
B3: FNIII-FLAG-His (receptor, murine, UniProt P48356 637-839, looked up, not shown: small tags and cut ends)
chain: PMRGPEFWRKMDGDVTKKERNVTLLWKPLTKNDSLCSVRRYVVKHRTAHNGTWSEDVGNRTNLTFLWTEPAHTVTVLAVNSLGASLVNFNLTFSWPMSKVSAVESLSAYPLSSSCVILSWTLSPDDYSLLYLVIEWKILNEDDGMKWLRIPSNVKKFYIHDNFIPIEKYQFSLYPVFMEGVGKPKIINGFTKDAIDKQQNDAG
notes: domain: FNIII domains; Secreted from COS-1 or Hek293T cells; runs as di-, tri- and higher order disulphide-linked clusters under non-reducing conditions; also called mLR FNIII-FLAG-His; soluble FNIII domains
B4: FNIII-FLAG-His cys672ser (receptor, murine, UniProt P48356 637-839, looked up, not shown: small tags and cut ends)
chain: B3 chain with C36S
notes: domain: FNIII domains
B5: FNIII-FLAG-His cys751ser (receptor, murine, UniProt P48356 637-839, looked up, not shown: small tags and cut ends)
chain: B3 chain with C115S
notes: domain: FNIII domains
B6: CRH2-FLAG-His (receptor, murine, UniProt P48356 428-635, looked up, not shown: small tags and cut ends)
chain: VNINISCETDGYLTKMTCRWSPSTIQSLVGSTVQLRYHRRSLYCPDSPSIHPTSEPKNCVLQRDGFYECVFQPIFLLSGYTMWIRINHSLGSLDSPPTCVLPDSVVKPLPPSNVKAEITVNTGLLKVSWEKPVFPENNLQFQIRYGLSGKEIQWKTHEVFDAKSKSASLLVSDLCAVYVVQVRCRRLDGLGYWSNWSSPAYTLVMDVK
notes: domain: CRH2; Expressed as a reduction-sensitive oligomeric complex; also called mLR CRH2-FLAG-His; soluble CRH2 domain

Columns and labels:
[1] = target: the molecule itself; assay: non-reducing anti-FLAG Western blot of COS-1 lysates (self-association)
Source text: Panel A: Plasmids encoding (1) mLR ΔCRH1, ΔIg, ΔCRH2; (2) mLR ΔCRH1, ΔIg, ΔCRH2 cys672ser; (3) mLR ΔCRH1, ΔIg, ΔCRH2 cys751ser; (4) mLR ΔCRH1, ΔIg, ΔCRH2 cys672,751ser were transiently transfected in COS-1 cells. Transfected cells were lyzed in a reducing (R) or non-reducing (NR) loading buffer. Lysates were loaded on a SDS-PAGE gel, blotted to a nitro-cellulose membrane and subjected to Western blot with an anti-FLAG antibody.

[2] = target: the molecule itself; assay: non-reducing anti-FLAG Western blot of COS-1 supernatant (self-association)
Source text: Panel A: The plasmid encoding FNIII-FLAG-His was transfected in COS-1 cells. Supernatant was subjected to Western blot analysis under reducing (R) or non-reducing (NR) conditions with an anti-FLAG antibody.
Panel A: Plasmid pMET7 CRH2-FLAG-His was transiently transfected in COS-1 cells. Supernatant was subjected to Western blot analysis with an anti-FLAG antibody under reducing (R) and non-reducing (NR) conditions.
We next analyzed the ligand-independent clustering of the FNIII domains in more detail. Constructs were generated to produce secreted forms of the FNIII domains, either as a FLAG-His-, or as a SEAP-FLAG-tagged protein. When FNIII-FLAG-His was expressed in COS-1 cells and analyzed under non-reducing conditions, di-, tri- and even higher order clusters were observed (FIG. 2, panel A). This clustering is independent of protein concentration since transfection with smaller amounts of expression vector gave the same clustering pattern. To confirm this FNIII-clustering, we set up a His/SEAP co-precipitation experiment. In this assay, FNIII-SEAP-FLAG proteins were co-expressed with FNIII-FLAG-His, or with empty vector as a negative control. Supernatants were analyzed in a precipitation experiment with a Ni²⁺ affinity resin. Co-precipitated SEAP activity reflects interaction between the proteins. FIG. 2, panel B clearly confirms homotypic interaction of the FNIII domain.

[3] = target: the molecule itself; assay: non-reducing anti-FLAG Western blot of secreted protein (self-association)

Protein | binding result [1] | binding result [2] | binding result [3]
B1 | binds | – | –
B2 | binds | – | –
B3 | – | binds | –
B4 | – | – | binds
B5 | – | – | binds
B6 | – | binds | –
